Experimental findings from paper doi:10.1101/2022.05.13.491786 are described below.

The target in experiment [1] is large 60S ribosomal subunit (human (endogenous in MCF7)) (UniProt P30050). Nature of the experiment: cryo-EM structure.
The target is the same in experiment [2]. Nature of the experiment: co-sedimentation.
The target of experiment [3] is inactive human 80S ribosome (human (endogenous in MCF7)) (UniProt P18124). Nature of the experiment: cryo-EM structure.

Turning to “eIF6 (from UniProt P56537 1-245) (natural protein)”, the percent of 60S subunits with eIF6 (untreated cells) in experiment [1] was determined as 30%. For the same substance, the stoichiometry N (eIF6 : large subunit proteins) in experiment [2] was determined as 1.

In experiment [3], “LYAR (from UniProt Q9NX58 1-379) (natural protein)” displayed a percent of 80S ribosomes with LYAR (arsenite-treated cells) of 15.5% and a percent of 80S ribosomes with LYAR (untreated cells) of 13.2%.

Regarding “IFRD2 (from UniProt Q12894 1-442) (natural protein)”, in experiment [3], the percent of 80S ribosomes with IFRD2 (arsenite-treated cells) worked out at 13% and the percent of 80S ribosomes with IFRD2 (untreated cells) turned out to be 16.9%.
